Experimental data reported in US20210253718A1 (MODMAB THERAPEUTICS, published 2021).

T1: FZD3 cysteine-rich domain (CRD), MYC-tagged and GPI-anchored on CHO cells (human, UniProt Q9NPG1 24-150, GPI anchor)
T1 construct: domain: cysteine-rich domain (CRD); also called FZD3 CRD; CHO-myc-FZDGPI; not shown: MYC tag and GPI anchor signal
T1 sequence (looked up): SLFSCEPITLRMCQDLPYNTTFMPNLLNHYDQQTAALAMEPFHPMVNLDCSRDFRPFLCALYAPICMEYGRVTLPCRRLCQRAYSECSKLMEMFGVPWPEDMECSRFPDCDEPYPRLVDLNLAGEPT

T2: FZD5 cysteine-rich domain (CRD), MYC-tagged and GPI-anchored on CHO cells (human, UniProt Q13467 29-156, GPI anchor)
T2 construct: also called FZD5 CRD; CHO-myc-FZDGPI; not shown: MYC tag and GPI anchor signal
T2 sequence: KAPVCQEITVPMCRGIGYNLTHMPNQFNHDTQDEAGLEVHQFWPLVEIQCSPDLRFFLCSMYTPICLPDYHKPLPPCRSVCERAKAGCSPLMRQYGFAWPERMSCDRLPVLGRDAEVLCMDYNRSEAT

T3: FZD6 cysteine-rich domain (CRD), MYC-tagged and GPI-anchored on CHO cells (human, UniProt O60353 20-146, GPI anchor)
T3 construct: also called FZD6 CRD; CHO-myc-FZDGPI; not shown: MYC tag and GPI anchor signal
T3 sequence: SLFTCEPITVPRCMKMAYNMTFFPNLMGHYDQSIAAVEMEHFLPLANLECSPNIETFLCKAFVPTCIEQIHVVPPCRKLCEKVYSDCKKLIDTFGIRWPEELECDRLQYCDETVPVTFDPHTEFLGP

T4: FZD8 cysteine-rich domain (CRD), MYC-tagged and GPI-anchored on CHO cells (human, UniProt Q498S8 31-155 (rat entry), GPI anchor)
T4 construct: also called FZD8 CRD; CHO-myc-FZDGPI; not shown: MYC tag and GPI anchor signal
T4 sequence: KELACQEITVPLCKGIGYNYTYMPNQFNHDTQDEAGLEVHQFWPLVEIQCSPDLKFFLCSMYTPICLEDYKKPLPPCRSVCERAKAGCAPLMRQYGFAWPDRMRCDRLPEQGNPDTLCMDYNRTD

T5: FZD9 cysteine-rich domain (CRD), MYC-tagged and GPI-anchored on CHO cells (human, UniProt O00144 35-161, GPI anchor)
T5 construct: also called FZD9 CRD; CHO-myc-FZDGPI; not shown: MYC tag and GPI anchor signal
T5 sequence: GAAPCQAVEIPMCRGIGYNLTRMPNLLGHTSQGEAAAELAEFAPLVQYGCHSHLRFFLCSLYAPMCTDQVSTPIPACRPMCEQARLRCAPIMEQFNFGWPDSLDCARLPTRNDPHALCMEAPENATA

T6: FZD10 cysteine-rich domain (CRD), MYC-tagged and GPI-anchored on CHO cells (human, UniProt Q9ULW2 30-156, GPI anchor)
T6 construct: also called FZD10 CRD; CHO-myc-FZDGPI; not shown: MYC tag and GPI anchor signal
T6 sequence: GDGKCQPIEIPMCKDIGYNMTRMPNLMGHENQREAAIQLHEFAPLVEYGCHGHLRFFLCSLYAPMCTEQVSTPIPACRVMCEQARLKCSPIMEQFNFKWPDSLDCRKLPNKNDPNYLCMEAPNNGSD

T7: FZD4 cysteine-rich domain (CRD), MYC-tagged and GPI-anchored on CHO cells (human, UniProt Q9ULV1 42-167, GPI anchor)
T7 construct: also called FZD4 CRD; CHO-myc-FZDGPI; not shown: MYC tag and GPI anchor signal
T7 sequence: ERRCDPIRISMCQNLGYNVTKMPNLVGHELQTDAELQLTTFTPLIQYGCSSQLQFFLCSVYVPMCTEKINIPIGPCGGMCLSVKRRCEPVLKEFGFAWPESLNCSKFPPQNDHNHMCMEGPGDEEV


Assays:
[1] = molecular target: T8, FZD1 cysteine-rich domain (CRD), MYC-tagged and GPI-anchored on CHO cells (human); assay: flow cytometry, CHO-CRD cells;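 further: flow cytometry of Fab binding to CHO cells overexpressing a Frizzled CRD, with binding defined as median fluorescence over twice that of CHO cells lacking any Frizzled CRD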
Experimental: (§1) Binding was measured via flow cytometry analysis of CHO cells overexpressing CRD of FZD1, FZD2, FZD3, FZD4, FZD5, FZD6, FZD7, FZD8, FZD9 or FZD10. Median fluorescence values are shown.

[2] = molecular target: T9, FZD2 cysteine-rich domain (CRD), MYC-tagged and GPI-anchored on CHO cells (human, UniProt Q14332 35-161); assay: flow cytometry, CHO-CRD cells;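 further: flow cytometry of Fab binding to CHO cells overexpressing a Frizzled CRD, with binding defined as median fluorescence over twice that of CHO cells lacking any Frizzled CRD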
Experimental: as §1

[3] = molecular target: T1, FZD3 cysteine-rich domain (CRD), …; assay: flow cytometry, CHO-CRD cells;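 further: flow cytometry of Fab binding to CHO cells overexpressing a Frizzled CRD, with binding defined as median fluorescence over twice that of CHO cells lacking any Frizzled CRD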
Experimental: as §1

[4] = molecular target: T2, FZD5 cysteine-rich domain (CRD), …; assay: flow cytometry, CHO-CRD cells;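 further: flow cytometry of Fab binding to CHO cells overexpressing a Frizzled CRD, with binding defined as median fluorescence over twice that of CHO cells lacking any Frizzled CRD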
Experimental: as §1

[5] = molecular target: T3, FZD6 cysteine-rich domain (CRD), …; assay: flow cytometry, CHO-CRD cells
Experimental: as §1

[6] = molecular target: FZD7 cysteine-rich domain (CRD), MYC-tagged and GPI-anchored on CHO cells (human, UniProt O75084 45-169); assay: flow cytometry, CHO-CRD cells
Experimental: as §1

[7] = molecular target: T4, FZD8 cysteine-rich domain (CRD), …; assay: flow cytometry, CHO-CRD cells
Experimental: as §1

[8] = molecular target: T5, FZD9 cysteine-rich domain (CRD), …; assay: flow cytometry, CHO-CRD cells
Experimental: as §1

[9] = molecular target: T6, FZD10 cysteine-rich domain (CRD), …; assay: flow cytometry, CHO-CRD cells
Experimental: as §1

[10] = molecular target: T8, FZD1 cysteine-rich domain (CRD), …; assay: immunofluorescence, CHO-CRD cells
[11] = molecular target: T9, FZD2 cysteine-rich domain (CRD), …; assay: immunofluorescence, CHO-CRD cells
[12] = molecular target: T1, FZD3 cysteine-rich domain (CRD), …; assay: immunofluorescence, CHO-CRD cells
[13] = molecular target: T3, FZD6 cysteine-rich domain (CRD), …; assay: immunofluorescence, CHO-CRD cells
[14] = molecular target: T5, FZD9 cysteine-rich domain (CRD), …; assay: immunofluorescence, CHO-CRD cells
[15] = molecular target: T7, FZD4 cysteine-rich domain (CRD), …; assay: flow cytometry, CHO-CRD cells
Experimental: as §1

[16] = molecular target: T7, FZD4 cysteine-rich domain (CRD), …; assay: immunofluorescence, CHO-CRD cells
[17] = molecular target: T6, FZD10 cysteine-rich domain (CRD), …; assay: immunofluorescence, CHO-CRD cells

| median fluorescence [1] | median fluorescence [2] | median fluorescence [3] | median fluorescence [4] | median fluorescence [5] | median fluorescence [6] | median fluorescence [7] | median fluorescence [8] | median fluorescence [9] | binding result [10] | binding result [11] | binding result [12] | binding result [13] | binding result [14] | median fluorescence [15] | binding result [16] | binding result [17] | Binder |
| --- | --- | --- | --- | --- | --- | --- | --- | --- | --- | --- | --- | --- | --- | --- | --- | --- | --- |
| 5.23 | 5.09 | 4.03 | 30.2 | 3.55 | 2.92 | 10.1 | 5.05 | 19.8 | no binding | no binding | no binding | no binding | no binding | – | – | – | Fab-2906 (Fab, V domains shown, Fab; also called Fv-2906) VH: EVQLVESGGGLVQPGGSLRLSCAASGFNFSSSSIHWVRQAPGKGLEWVAYISSSYGYTYYADSVKGRFTISADTSKNTAYLQMNSLRAEDTAVYYCARTVRGSKKPYFSGWAMDYWGQGTLVTVSS VL: DIQMTQSPSSLSASVGDRVTITCRASQSVSSAVAWYQQKPGKAPKLLIYSASSLYSGVPSRFSGSRSGTDFTLTISSLQPEDFATYYCQQWSWGFLITFGQGTKVEIK |
| – | 4.41 | 3.55 | 29.2 | 2.69 | 7.5 | 7.57 | 3.11 | 2.81 | – | no binding | no binding | no binding | no binding | 4.07 | no binding | no binding | Fab-2918 (Fab, V domains shown, Fab; also called Fv-2918) VH: EVQLVESGGGLVQPGGSLRLSCAASGFNLSYSSIHWVRQAPGKGLEWVASIYSSYSSTSYADSVKGRFTISADTSKNTAYLQMNSLRAEDTAVYYCARFGYWAIDYWGQGTLVTVSS VL: DIQMTQSPSSLSASVGDRVTITCRASQSVSSAVAWYQQKPGKAPKLLIYSASSLYSGVPSRFSGSRSGTDFTLTISSLQPEDFATYYCQQAFGASLFTFGQGTKVEIK |
| – | 4.29 | 3.55 | 27.1 | 2.84 | 13 | 7.91 | 3.08 | 2.64 | – | no binding | no binding | no binding | no binding | 3.72 | no binding | no binding | Fab-2929 (Fab, V domains shown, Fab; also called Fv-2929) VH: EVQLVESGGGLVQPGGSLRLSCAASGFNISYYYIHWVRQAPGKGLEWVASIYPSSSSTSYADSVKGRFTISADTSKNTAYLQMNSLRAEDTAVYYCARGAMDYWGQGTLVTVSS VL: DIQMTQSPSSLSASVGDRVTITCRASQSVSSAVAWYQQKPGKAPKLLIYSASSLYSGVPSRFSGSRSGTDFTLTISSLQPEDFATYYCQQWYSSYGLITFGQGTKVEIK |
| 6.1 | 8.98 | 6.44 | 36.9 | 4 | 16 | 13.9 | 3.96 | 4.1 | no binding | no binding | no binding | no binding | no binding | – | – | no binding | Fab-2902 (Fab, V domains shown, Fab; also called Fv-2902) VH: EVQLVESGGGLVQPGGSLRLSCAASGFNISYYYIHWVRQAPGKGLEWVASISSSSSSTSYADSVKGRFTISADTSKNTAYLQMNSLRAEDTAVYYCARGALDYWGQGTLVTVSS VL: DIQMTQSPSSLSASVGDRVTITCRASQSVSSAVAWYQQKPGKAPKLLIYSASSLYSGVPSRFSGSRSGTDFTLTISSLQPEDFATYYCQQWYAFGALITFGQGTKVEIK |
